Experimental data: the supplement of paper PMC10567573

B1: PSD2 (parent)
chain: LTHFSRRYCQCNPDDSTSEDGIHT
B2: C22orf31 (parent)
chain: YSLELGKAIKQKLWEALCSQGAIS

Variants of: B1
Assay: protein stability index of a GFP-peptide fusion (GPS, HEK-293T) (PSI 1-6); higher = more stable
Settings: c terminus: a fixed tail appended
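Further: lentivirally expressed fusions sorted by FACS into six bins by GFP to DsRed ratio, PSI derived from sequencing read proportions per bin multiplied by bin number.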

Protein stability index: each site, then its substitutions
T24: F 2.08, L 2.38, Y 2.34, I 3.05, N 3.4, S 3.02, A 3.46, H 2.5, P 3.82, Q 3.37, K 2.61, E 4.08, R 2.27, W 2.26, C 2.68, G 3.27, V 3.36, D 3.86, M 2.52
I22: T 3.59, S 3.87, V 3.71, R 3.22, Y 3.29, W 2.43
H23: C 3.16, P 3.9, S 4.2, Y 3.58, F 2.01, M 3.82, W 2.62, N 3.64, K 2.92, Q 3.73, I 3.21, R 2.95, V 2.93, E 3.91, A 3.66, L 3.73, D 3.58, T 2.75, G 3.69

Variants of: B2
Assay: as above
Settings: c terminus: a fixed tail appended

Protein stability index, by site and new letter:
L3: S 1.75, D 1.38, P 1.64, K 2.03, E 2.53, Y 2.44, M 2.18, I 1.79, H 1.66, N 2.19, T 1.89, A 2.39, F 2.43, G 1.43, V 3.15
A8: R 2.51, W 1.81, E 2.17, G 1.63, Q 1.64, T 1.97, Y 2.97, K 1.61, H 2.73, I 2.24, M 2.31, F 1.7, P 1.84, S 2.19, V 2.75, D 1.76, N 2.57
S2: A 1.79, P 2.3, K 2.68, H 2.43, E 1.59, T 2.86, G 2.35, M 2.38, Y 3.28, Q 1.57, R 2.42, V 1.12, D 1.56, C 2.15, N 2.79
E4: F 3.85, L 2.69, W 3.56, A 2.96, K 3.04, C 2.69, G 1.56, H 2.7, D 3.44, M 2.42, Q 3.4, S 1.88, V 3.23, N 3.57, I 3.45, Y 3.11
G6: C 2.16, Y 2.27, D 1.9, S 1.25, T 1.86, L 2.97, H 1.59, W 3.02, F 2.28, N 1.91, K 1.73, Q 1.98, R 2.73, P 1.36, A 1.94, E 2.03
I9: C 1.79, A 1.35
L5: D 2.11, G 1.82, Y 1.86, M 2.14, S 1.5, A 1.83, T 1.75, I 3.07, W 1.96, F 4.05, H 2.19, Q 1.35, E 2.21, N 1.59, P 1.62, K 2.64
K7: E 2.34, V 2.31, I 3.6, Y 2.1, C 1.73, D 2.63, R 1.6, P 2.68, T 2.46, G 1.24, Q 2
Y1: D 1.87, L 2.91, T 3.1, A 1.69, E 1.22, R 2.88, V 2.56, C 2.58, H 2.79, I 3.2, N 2.16, P 2.12, Q 2.81, F 2.8, K 3.44
